As a reminder, the IC50 is the concentration at which inhibition is half-maximal.

The subject of experiment [1] is breast cancer cells (MCF7). As to the kind of experiment: CCK8 cell viability detection, MCF7. It counts as cell-based, human. As to the method:
CCK8 cell viability detection: cell suspension was seeded in 96-well plates at a concentration of 5×10^4 cells/ml (100 μL/well). The plates were placed in the incubator for pre-culture (at 37° C., 5% CO2), and control and protein agents were added to each well 24 h after seeding. The plates were then placed in the incubator for 24 h, followed by addition of 10 μL CCK8 solution into each well and incubation of the plates in the incubator for 0.5-2 h before the absorbance measurement at 450 nm using a microplate reader.
We constructed GhJAZ1 prokaryotic expression plasmid with His-tag to express proteins (see step 2 in Example 4), and then a GhJAZ1 protein, along with 6 His tags, which was approximately 30 KD in size was found by WB detection (A in FIG. 7). The purified GhJAZ1 protein was used to treat breast cancer cells (MCF7) and breast epithelial cells (MCF10A), and the cell viability was measured with CCK8.

Experiment [2] addresses c-Myc (Homo sapiens, UniProt P01106). Description: CO-IP with c-Myc in HEK293 cells. It counts as binding. More on the design: host or cells: HEK293 cells (method paragraph: 293T). As to the method:
Steps of method of CO-IP experiment: Non-denaturing lysate was added to 293T cell culture plate (Pricella, Cat. No.: CL-0005), and the cells were completely lysed at 4° C. The lysate was centrifuged at 12,000 rpm for 10 min and the supernatant was collected. The corresponding antibody was added to the obtained non-denatured protein solution, which was incubated overnight at 4° C. Pierce™ protein A/G magnetic agarose (Thermo Fisher Scientific, Inc.) were washed with lysis buffer, followed by addition pre-treated beads to the cell lysate, and incubation at room temperature for 2 hours. The mixture was centrifuged at 4° C., 2,500 rpm for 5 min with supernatant removed, and the agarose beads were washed 5 times with 1 ml of lysis buffer. An appropriate amount of protein loading buffer was added to the pellet, and the sample was incubated in water bath at 100° C. for 10 min. The band of interest was detected by Western blotting.
Immunoprecipitation method (method of the experiment as Example 3) was used.

For experiment [3], the system named is normal breast epithelial cells MCF10A. Description: Apoptosis detection (Annexin V-FITC/PI), MCF10A. It counts as cell-based. The conditions noted are these: 0.691 μM, 24 h, vs PBS. On the procedure: Apoptosis detection: cells were collected in 1.5 EP tubes and centrifuged at 300 g for 5 min, with the supernatant discarded, followed by collecting the cells, washing with PBS and resuspending. 1×10^5 resuspended cells were taken and centrifuged at 300 g for 5 min, with the supernatant discarded. The cells were washed with PBS, resuspended by adding 500 μl of diluted 1×Annexin V Binding Buffer working solution, and then a staining solution of 5 μL of Annexin V-FITC and 5 μL of propidium iodide (PI) were added and mixed well by vortex, followed by incubation at room temperature in the dark for 15-20 min, and detection on the instrument. Specifically, the Annexin V-FITC/PI fluorescent dual staining cell apoptosis detection kit (Wuhan Pricella Life Science & Technology Co., Ltd., Cat. No.: P-CA-201) was used.

The test system of experiment [4] is GhMYC2. As to the kind of experiment: Yeast two hybrid with GhMYC2. The class given is binding, cotton. As to the method: The study on Arabidopsis had shown that the inhibition of JAZ protein on JA signaling was mainly achieved by inhibiting the transcription factor function of MYC, which had been experimentally verified by us in cotton. Based on the phylogenetic tree of Arabidopsis and cotton JAZs, we screened 6 cotton JAZs (GhJAZ1, GhJAZ7, GhJAZ9, GhJAZ10, GhJAZ11 and GhJAZ31), which were analyzed with GhMYC2, GhNINJA, GhTPL, GhHDA6, and GhCOI1 for yeast two hybrid. The amino acid sequence of GhJAZ1 was set forth in SEQ ID No. 4, and the corresponding encoding gene sequence was set forth in SEQ ID No. 39; the amino acid sequence of GhJAZ7 was set forth in SEQ ID No. 7, and the corresponding encoding gene sequence was set forth in SEQ ID No. 42; the amino acid sequence of GhJAZ9 was set forth in SEQ ID No. 2, and the corresponding encoding gene sequence was set forth in SEQ ID No. 37; the amino acid sequence of GhJAZ10 was set forth in SEQ ID No. 3, and the corresponding encoding gene sequence was set forth in SEQ ID No. 38; the amino acid sequence of GhJAZ11 was set forth in SEQ ID No. 5, and the corresponding encoding gene sequence was set forth in SEQ ID No. 40; and the amino acid sequence of GhJAZ31 was set forth in SEQ ID No. 9, and the corresponding encoding gene sequence was set forth in SEQ ID No. 44. The amino acid sequence of GhMYC2 was set forth in SEQ ID No. 71, and the corresponding encoding gene sequence was set forth in SEQ ID No. 72; the amino acid sequence of GhNINJA was set forth in SEQ ID No. 73, and the corresponding encoding gene sequence was set forth in SEQ ID No. 74; the amino acid sequence of GhTPL was set forth in SEQ ID No. 75, and the corresponding encoding gene sequence was set forth in SEQ ID No. 76; the amino acid sequence of GhHDA6 was set forth in SEQ ID No. 77, and the corresponding encoding gene sequence was set forth in SEQ ID No. 78; and the amino acid sequence of GhCOI1 was set forth in SEQ ID No. 79, and the corresponding encoding gene sequence was set forth in SEQ ID No. 80. […]

Experiment [5] relates to downstream genes of c-Myc in MCF7 cells. Description: Transcriptome sequencing and RT-PCR of c-Myc downstream genes, MCF7. The class given is cell-based, human. On the procedure: Identification at the RNA level: RNA was extracted using RNA extraction kit (RNAprep Pure Polysaccharide Polyphenol Plant Total RNA Extraction Kit (DP441), manufacturer: TIANGEN BIOTECH (BEIJING) CO., LTD.), and then cDNA was obtained using two-step reverse transcription kit (a third-generation premix for two-step de-genomization and reverse transcription, Cat. No.: MR05201). cDNA as a template was added into a 96-well plate, with addition of SYBR®Green I chimeric dye (an antibody dye quantitative PCR premix, Cat. No.: MQ10101) and gene primers for three-step qPCR amplification. Finally, the relative gene expression was calculated based on the Ct value.
And it was validated to be consistent with the transcriptome results (B in FIG. 9) by RT-PCR (the steps of method as Example 1). Wherein, the sequences of RT-PCR primers were as follows: […]
Wherein, the sequences of primers were as follows: […]

Chain of GhMYC2 (as listed by the source): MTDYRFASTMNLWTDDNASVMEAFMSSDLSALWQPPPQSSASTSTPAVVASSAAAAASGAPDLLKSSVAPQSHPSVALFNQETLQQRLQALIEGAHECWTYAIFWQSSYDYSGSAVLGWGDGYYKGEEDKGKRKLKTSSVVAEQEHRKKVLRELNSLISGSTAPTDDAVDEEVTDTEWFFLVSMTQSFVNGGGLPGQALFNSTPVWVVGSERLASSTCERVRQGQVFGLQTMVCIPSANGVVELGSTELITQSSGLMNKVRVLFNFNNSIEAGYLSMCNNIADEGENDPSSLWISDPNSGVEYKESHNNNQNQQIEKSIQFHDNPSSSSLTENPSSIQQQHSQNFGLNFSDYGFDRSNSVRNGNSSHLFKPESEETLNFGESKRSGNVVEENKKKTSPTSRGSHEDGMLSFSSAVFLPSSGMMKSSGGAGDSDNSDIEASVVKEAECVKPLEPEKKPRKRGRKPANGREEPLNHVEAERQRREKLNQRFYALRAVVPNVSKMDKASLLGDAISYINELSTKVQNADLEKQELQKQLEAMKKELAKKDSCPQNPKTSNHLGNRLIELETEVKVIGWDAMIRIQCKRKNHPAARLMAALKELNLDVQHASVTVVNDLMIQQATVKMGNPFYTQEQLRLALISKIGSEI
Chain of c-Myc (P01106 whole entry): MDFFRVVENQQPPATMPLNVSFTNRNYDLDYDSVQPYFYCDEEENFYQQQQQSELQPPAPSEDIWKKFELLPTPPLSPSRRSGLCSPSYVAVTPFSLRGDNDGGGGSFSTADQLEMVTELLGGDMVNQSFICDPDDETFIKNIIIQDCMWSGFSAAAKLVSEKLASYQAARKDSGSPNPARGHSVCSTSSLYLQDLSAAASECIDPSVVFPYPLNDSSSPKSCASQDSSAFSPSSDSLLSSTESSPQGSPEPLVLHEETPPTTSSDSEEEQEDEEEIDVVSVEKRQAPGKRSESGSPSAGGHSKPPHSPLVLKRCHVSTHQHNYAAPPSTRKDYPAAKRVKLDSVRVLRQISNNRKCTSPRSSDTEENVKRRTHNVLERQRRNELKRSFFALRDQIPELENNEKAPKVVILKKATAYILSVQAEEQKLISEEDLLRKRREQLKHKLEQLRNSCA

B1: GhJAZ1: cotton JAZ1 protein, gene number Gh_A05G0260, sequence SEQ ID No. 4; prokaryotically expressed with His tag, about 30 KD (protein)
chain: MSSCSESTAMKPARSPEKPSFAQTCNLLSQYLKEKGSFGDLSLGMTCNVEANGTPVVPPPTMNLFPLNDKSDDVCGRNGGNPKNLTSMDLFPQQAGLASKDDSPNKLEPQTAPMTIFYGGQVIVFNDFPANKAKEIMLLASNSSSQSNNSFNPIPFTSSIARSPIESSIGVPPTSKPVHPAQRAVPGDLPIARRASLHRFLEKRKDRITAKAPYQINNSAAAPSLSGDNKSWLGLAAQSP
modifications: His tag
notes: prokaryotically expressed with His tag, about 30 KD
Consider B1, for which the half-inhibitory concentration (IC50) in experiment [1] (CCK8, 24 h treatment, read-out: IC50, inhibition of MCF7 cells) stood at 0.691 µM. Further, in experiment [1] (with the increase of GhJAZ1 protein concentration), the “viability of MCF7 cells” value is “decreased significantly”. For the same molecule, the “interaction with c-Myc” value in experiment [2] was “interacted”. In experiment [3], the “effect on apoptosis of normal cells (MCF10A)” value is “no significant effect”. Further, the “interaction with GhMYC2” value in experiment [4] was “strong”. In experiment [5] (MCF7, 0.691 μM, 24 h), the “expression of cell cycle-related genes (transcriptome, validated by RT-PCR)” value is reported as “down regulated”. Also, in experiment [5] (MCF7, RT-PCR), the “expression of CCNE1” value is “extremely significantly upregulated”; the “expression of P21 gene” value is on record as “extremely significantly upregulated”; the “expression of apoptosis related genes Bcl2, BAX, HK2, FASN, MCM5 downstream of c-Myc” value is reported as “extremely significantly downregulated”; the “expression of cell cycle-related genes CCNA2, CCNB1, CCND1” value was “extremely significantly downregulated”.

B2: GhJAZ1 after deletion of NT domain: GhJAZ1 mutant with NT domain deleted, protein sequence SEQ ID No. 83 (protein)
chain: MSSCSESTAMKPARSPEANGTPVVPPPTMNLFPLNDKSDDVCGRNGGNPKNLTSMDLFPQQAGLASKDDSPNKLEPQTAPMTIFYGGQVIVFNDFPANKAKEIMLLASNSSSQSNNSFNPIPFTSSIARSPIESSIGVPPTSKPVHPAQRAVPGDLPIARRASLHRFLEKRKDRITAKAPYQINNSAAAPSLSGDNKSWLGLAAQSP
As to B2, the “interaction with GhMYC2” value in experiment [4] was “significantly weakened”.

For the origin of these results see patent US20240279288A1, “APPLICATION OF PLANT JAZ PROTEINS AND DERIVED POLYPEPTIDES IN PREVENTION AND TREATMENT OF HUMAN AND ANIMAL TUMORS” (ANYANG INSTITUTE OF SINO-COTTON INDUSTRY INNOVATION, priority 2021, published 2024).
